These results are taken from publication PMC3123459.

In general, stoichiometry N refers to a count of units in the complex or per binding partner.

This assay addresses Acyl-CoA dehydrogenase from Mycobacterium thermoresistibile (Mycobacterium thermoresistibile). Nature of the assay: crystal structure.

“Acyl-CoA dehydrogenase from Mycobacterium thermoresistibile (enzyme)” gave a stoichiometry N of 4.
